{
  "source": "patent US20020164702A1",
  "target": "endogenous mouse MuSK on C2C12 myotubes or primary mouse myotubes (mouse) (UniProt Q61006)",
  "sequence (Q61006 22-868)": "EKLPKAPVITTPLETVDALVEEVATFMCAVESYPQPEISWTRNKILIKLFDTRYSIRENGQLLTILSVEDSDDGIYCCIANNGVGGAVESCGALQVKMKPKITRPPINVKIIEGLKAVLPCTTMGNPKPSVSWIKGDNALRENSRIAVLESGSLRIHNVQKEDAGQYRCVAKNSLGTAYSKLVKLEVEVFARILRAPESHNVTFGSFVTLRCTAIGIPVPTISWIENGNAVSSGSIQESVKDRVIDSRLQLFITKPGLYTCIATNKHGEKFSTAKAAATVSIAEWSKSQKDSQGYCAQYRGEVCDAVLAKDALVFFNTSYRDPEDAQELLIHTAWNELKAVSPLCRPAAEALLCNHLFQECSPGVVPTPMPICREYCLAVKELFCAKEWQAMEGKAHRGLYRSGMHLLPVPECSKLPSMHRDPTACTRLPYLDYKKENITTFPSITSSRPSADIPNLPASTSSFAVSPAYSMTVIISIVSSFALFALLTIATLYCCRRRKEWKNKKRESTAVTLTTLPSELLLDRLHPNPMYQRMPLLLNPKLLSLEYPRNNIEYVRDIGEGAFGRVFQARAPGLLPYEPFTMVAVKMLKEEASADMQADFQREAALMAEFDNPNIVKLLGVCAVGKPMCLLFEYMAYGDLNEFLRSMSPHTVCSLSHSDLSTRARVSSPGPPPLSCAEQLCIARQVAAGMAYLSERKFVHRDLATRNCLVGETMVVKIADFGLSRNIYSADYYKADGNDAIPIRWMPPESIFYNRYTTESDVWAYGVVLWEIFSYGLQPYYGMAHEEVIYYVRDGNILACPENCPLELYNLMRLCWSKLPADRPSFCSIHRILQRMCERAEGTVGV",
  "test": "cell-based or functional assay",
  "data": [
    {"substance": "agrin (isoform not stated at that place) (ligand)", "values": [
      {"measurement": "tyrosine phosphorylation of MuSK in myotubes, dose", "value": 1, "unit": "nM"}
    ]}
  ]
}
